In one data set the test system is L22 (synthetic). The experiment in a line: EMSA. For orientation: In EMSA bound probe runs differently from free probe, usually more slowly.
The subject of a further data set is JB190 (synthetic). The experiment in a line: EMSA.
A further data set relates to JB184 (synthetic). The experiment in a line: EMSA.
The target in data set [1] is P-TEFb/Tat1:57/AFF4;JB181 (HIV-1 (Tat); human? (P-TEFb, AFF4);synthetic) (UniProt O60563+P50750+P04608+Q9UHB7). Put plainly: EMSA.
The next data set concerns JB186 (synthetic). The experiment in a line: EMSA.
Data set [2] concerns JB181 (synthetic). Put plainly: EMSA.
The test system of a further data set is JB59 (synthetic). Put plainly: EMSA.
In another data set the test system is JB58 (synthetic). Put plainly: EMSA.
Another data set deals with JB185 (synthetic). Put plainly: EMSA.
For data set [3], the system named is HIV-1 clone NLgNef in M7-luc cells. Put plainly: Spreading infection (inhibition of viral spread). Format: cell-based. The settings on record: M7-luc cells infected with NLgNef. Here is the method:
A 5 × 10^6 5.25.EGFP.Luc.M7 cells (M7-luc, gift of N. Landau(36)) grown in Roswell Park Memorial Institute medium (RPMI) containing 25 mM 4-(2-hydroxyethyl)-1-piperazineethanesulfonic acid (HEPES) (GE Life Sciences, Pittsburgh, PA), 10% Fetal Bovine Serum (FBS) (Sigma, St. Louis, MO) and 100 μg/ml normocin (Invivogen, San Diego, CA) were infected with the HIV-1 strain NL43-GFP-IRES-Nef (NLgNef) that expresses Green Fluorescent Protein (GFP) and Nef on a bicistronic Nef messenger RNA (a gift of David Levy ([37])) at a low multiplicity of infection (<0.01 infectious units/cell). […] Forty-eight hours post peptide addition, the percentage of cells expressing GFP was determined by flow cytometry via BD Fortessa SORP (BD, Franklin Lakes, NJ). Flow cytometry data were analyzed using WinList 3D (Verity Software House, Topsham, ME). […]
To evaluate anti-viral potency, we tested compound JB181 for inhibition of viral spread (Figure 3A) by comparison with L22 and a linear peptide control (same sequence as L22 but not cyclized). […] Peptides were added 24 h post-infection and spread of infection determined after 72 h. […]
Figure 3. […] Three days post-infection, GFP expression was measured by flow cytometry. […] Twenty-four hours later, reactivation as monitored by GFP expression was measured by flow cytometry. […]

The subject of data set [4] is Jurkat clone E4 (latent HIV provirus with LTR-driven GFP). The experiment in a line: Reactivation from latency. It counts as cell-based, HIV-1. The settings on record: E4 Jurkat cells, peptides 0.39-100 μM, TNFα 1 ng/ml, GFP by flow cytometry 24 h later, triplicate. Here is the method:
A 5 × 10^4 cells/well of Jurkat clone E4 (in RPMI ([38])) were added to a 96-well plate at the same time as a dilution series of JB181, cyclic L22 and linear L22 (0.39, 1.56, 6.25, 25, 50 and 100 μM) in triplicate. Four hours following peptide addition, tumor necrosis factor α (TNFα) (1 ng/ml, Peprotech, Rocky Hill, NJ) was added to stimulate HIV-1 transcription. Twenty-four hours later, the percentage of cells expressing GFP was determined by flow cytometry as described above.
Figure 3. (A) M7-luc cells were infected with the replication competent HIV-1 clone NLgNef at very low titer. Three days post-infection, GFP expression was measured by flow cytometry. […] (B) JB181 inhibits HIV-1 reactivation from latency. Tat-dependent expression of GFP is repressed in E4 Jurkat cells, which serve as a model of HIV latency. These cells were pre-incubated for 2 h with L22 (cyclic, green), L22 (linear, blue) or JB181 (cyclic, red) at concentrations 0.5–100 μM, then stimulated for reactivation by TNFα at 1ng/ml. Twenty-four hours later, reactivation as monitored by GFP expression was measured by flow cytometry. […] (C) Biochemical RT inhibition assays were conducted as described previously ([31]) for peptides JB59, JB60, JB181 and L50 along with AZT. (D) Competition EMSA comparing affinity of the P-TEFb/Tat1:57/AFF4 complex for wild-type HIV-TAR with or without JB181 pre-bound to TAR. […]
(In general: Flow cytometry measures light scatter and fluorescence of single cells or particles in a stream.)

The subject of a further data set is CD4+ T cells. Format: cell-based. The settings on record: human CD4+ T-cells; 1 mg/ml peptide in the extracellular medium; percent of cells containing peptide by flow cytometry. The procedure:
(§1) Frozen, de-identified human PBMCs (Allcells, Alameda, CA) were thawed and stimulated with 6 IU IL-2 (R&D Systems, Minneapolis, MN) and 10 μg/ml concanavalin A (ConA, MilliporeSigma, Billerica, MA) in RPMI. Six days post-thaw, CD4+ T cells were positively isolated using an EasySep Human CD4 positive selection kit in a RoboSep robot (#18052RF, Stemcell Technologies, Cambridge, MA). 2D10 Jurkat cells ([38]) were also grown in RPMI. L22 selectively labeled with 5/6-carboxyfluorescein was added at indicated concentrations at indicated time points prior to flow cytometry analysis as described above.
(§2) Fig. S4. Uptake of fluorescein-labeled L22. a). The turn residue, Lys6, of L22 was first selectively labeled with 5/6-carboxyfluorescein using NHS coupling chemistry and incubated with either CD4+ T cells (top) […]
(§3) containing peptide was analyzed by flow cytometry. b). 2D10 Jurkat cells were first stimulated with TNFα for 4hrs then incubated with L22-AF647 (red) for 30min prior to FISH staining for HIV TAR RNA (yellow), nuclear staining with DAPI (blue) and GFP expression dependent on transcription of HIV (green).
(§4) Panel I overlay all four stains, Panel II is L22-AF647 only; Panel III is L22-AF647 and TAR FISH, Panel IV L22-AF647 and GFP expression.
(§5) (1 picture or pasted object on this page, not shown here)

The subject of a further data set is 2D10 Jurkat cells. Format: cell-based. As to conditions: 1 mg/ml peptide in the extracellular medium, percent of cells containing peptide by flow cytometry. Here is the method:
as §1, §2, §3, §4, §5

The test system of data set [5] is JB181 (synthetic). Put plainly: 2-aminopurine fluorescence. As to conditions: C24 replaced by 2-aminopurine.
Another data set addresses BIV TAR RNA. The experiment in a line: EMSA binding to BIV TAR. As to conditions: positional scanning library, Table S1. Here is the method: (§6) Electro Mobility Shift Assays (EMSA) and 2-aminopurine fluorescence ([35]) were used to measure peptide binding. For EMSA, all RNAs were 5′-dephosphorylated ([25],[26]) and 5′-rephosphorylated using T4 Polynucleotide Kinase (PNK); shifts were performed and analyzed as previously described ([14]). The P-TEFb/Tat1:57/AFF4 binding assays were run as described ([11]), with protein samples generously donated by Drs Ursula Schulze-Gahmen and James Hurley, but binding buffers contained 250× fold excess yeast tRNA. JB181-bound samples were prepared with 3× excess labeled HIV-TAR prior to titration with the pre-formed P-TEFb/Tat1:57/AFF4 complex.
(§7) Fig. S1. a) HIV-1 TAR, BIV TAR and 7SK-SL4 RNAs have similar secondary structures, but the JB181 peptide discriminates between them. […]
(§8) tightly than BIV TAR (3.3 nM) or 7SK (>3 μM) RNAs. b) EMSA of representative JB-peptides with 32P radiolabeled HIV-1 TAR RNA ([RNA]=75pM). The peptide concentration increases from left to right, as indicated. The dissociation constant can be estimated by the peptide concentration where there is an approximate 1:1 ratio (as established by visual inspection) between free RNA and complex, since the RNA concentration is much lower than the KD.
as §5

The next data set concerns the target HIV-1 TAR RNA. It counts as binding. As to conditions: EMSA, positional scanning library, Table S1. The procedure: as §6, §7, §8, §5
Another data set concerns the target P-TEFb/Tat1:57/AFF4 (HIV-1 (Tat); (P-TEFb, AFF4), UniProt O60563;P50750;P04608;Q9UHB7 1-264;1-330;1-57;2-73). The experiment in a line: EMSA; 250-fold excess yeast tRNA; RNA 100 pM. The settings on record: protein: recombinant; copies: 1;1;1;1; label: 5'-32P; hairpin with UCU bulge.
Where [6] appears, read: with tRNA, read-out: Kd (nM) w/tRNA.
[7] abbreviates: without tRNA, read-out: Kd (nM) no tRNA.

Like-named read-outs stand apart in the source and are kept apart here. Non-standard residues stand in square brackets, D forms with d. Residues, ends and D or L forms follow the SMILES beside them. *: point of attachment. 5FAM = O=C1OC2(c3ccc(O)cc3Oc3cc(O)ccc32)c2ccc(C(=O)*)cc21 A value given as a limit tells only on which side of the number the result lay.

As to “GGCAGAUCUGAGCCUGGGAGCUCUCUGCC [HIV-1 TAR]”, the Kd in the data set on L22 (synthetic) was 30 nM; with JB190 (synthetic) it was 1.6 nM; in the data set with JB184 (synthetic) it was greater than 250 nM; in [1], 17 nM; with JB186 (synthetic), 1.2 nM; with JB181 (synthetic) [2], less than 0.18 nM. Besides, the Kd with JB59 (synthetic) was 1 nM; with JB58 (synthetic) it was 3 nM; in the data set with JB185 (synthetic), 0.5 nM.

Consider `CC[C@H](C)[C@@H]1NC(=O)[C@H](CCCNC(=N)N)NC(=O)[C@H](CCCNC(=N)N)NC(=O)CNC(=O)[C@H](CCCCN)NC(=O)[C@H](CCCNC(=N)N)NC(=O)[C@H]([C@@H](C)O)NC(=O)[C@H](CCCNC(=N)N)NC(=O)[C@H](C(C)C)NC(=O)[C@H](CCCNC(=N)N)NC(=O)[C@@H]2CCCN2C(=O)[C@H]2CCCN2C(=O)[C@H]([C@@H](C)CC)NC(=O)[C@H](CCCNC(=N)N)NC1=O` [Peptide L22] (cyclo(RVRTRKGRRIRI[dP]P)), for which, in data set [3] (peptides 12.5 to 100 μM added 24 h post-infection, % GFP-expressing cells by flow cytometry, triplicate), the “reduction of infection compared to no peptide controls” value is greater than 50%. In addition, in data set [3] (peptides 12.5 to 100 μM, GFP by flow cytometry), the “inhibition of viral replication and spread (in words)” value was “blocked replication and spread”. Also, the figures for the “inhibition of HIV-1 reactivation from latency (in words)” value in data set [4] and in data set [4] (listed as cyclic L22) were “inhibit at similar levels” and “blocked reactivation”, respectively.

In the case of `CC[C@H](C)[C@@H]1NC(=O)[C@H](CCCNC(=N)N)NC(=O)[C@H](CCCNC(=N)N)NC(=O)CNC(=O)[C@H](CCCCNC(=O)c2ccc3c(c2)C(=O)OC32c3ccc(O)cc3Oc3cc(O)ccc32)NC(=O)[C@H](CCCNC(=N)N)NC(=O)[C@H]([C@@H](C)O)NC(=O)[C@H](CCCNC(=N)N)NC(=O)[C@H](C(C)C)NC(=O)[C@H](CCCNC(=N)N)NC(=O)[C@@H]2CCCN2C(=O)[C@H]2CCCN2C(=O)[C@H]([C@@H](C)CC)NC(=O)[C@H](CCCNC(=N)N)NC1=O` [fluorescein-labeled L22] (cyclo(RVRTRK(5FAM)GRRIRI[dP]P)), the “uptake (in words)” value in the data set on CD4+ T cells and in the data set on 2D10 Jurkat cells was “good uptake” throughout.

For the molecule HIV-1 TAR C24 2-aminopurine, the Kd with JB181 (synthetic) [5] worked out at 0.028 nM.

As for `CC[C@H](C)[C@@H]1NC(=O)[C@H](CCCNC(=N)N)NC(=O)[C@H](CCCNC(=N)N)NC(=O)CNC(=O)[C@H](CCCCN)NC(=O)[C@H](CCCNC(=N)N)NC(=O)[C@H]([C@@H](C)O)NC(=O)[C@H](CCCNC(=N)N)NC(=O)[C@H](CC(N)=O)NC(=O)[C@H](CCCNC(=N)N)NC(=O)[C@@H]2CCCN2C(=O)[C@H]2CCCN2C(=O)[C@H]([C@@H](C)CC)NC(=O)[C@H](CCCNC(=N)N)NC1=O` [JB-63] (cyclo(RNRTRKGRRIRI[dP]P)), the Kd at BIV TAR RNA is less than 1 nM; on HIV-1 TAR RNA (setting [6]), 100 nM; at HIV-1 TAR RNA (setting [7]), 1 nM.

For `CC[C@H](C)[C@@H]1NC(=O)[C@H](CCCNC(=N)N)NC(=O)[C@H](CCCNC(=N)N)NC(=O)CNC(=O)[C@H](CCCCN)NC(=O)[C@H](CCCNC(=N)N)NC(=O)[C@H]([C@@H](C)O)NC(=O)[C@H](CCCNC(=N)N)NC(=O)[C@H]([C@@H](C)O)NC(=O)[C@H](CCCNC(=N)N)NC(=O)[C@@H]2CCCN2C(=O)[C@H]2CCCN2C(=O)[C@H]([C@@H](C)CC)NC(=O)[C@H](CCCNC(=N)N)NC1=O` [JB-65] (cyclo(RTRTRKGRRIRI[dP]P)), the Kd was less than 1 nM on BIV TAR RNA, 50 nM on HIV-1 TAR RNA (setting [6]) and 1 nM at HIV-1 TAR RNA (setting [7]).

For the molecule GGCAGAUCUGAGCCUGGGAGCUCUCUGCC (structured_RNA) [HIV-1 TAR], the Kd with P-TEFb/Tat1:57/AFF4 stood at 9 ± 4 nM.

Values taken from PMC6379670, “An ultra-high affinity ligand of HIV-1 TAR reveals the RNA structure recognized by P-TEFb” (Nucleic Acids Research, 2018).
